Assay results taken from the supplement of paper PMC10724198.
± gives the standard deviation of the averaged measurements.

Tested on: Saccharomyces cerevisiae
Assay: protein stability index of tFT-peptide fusion (C-terminal peptide) (PSI (0-1 scale)); higher = more stable (slower turnover)
Settings: temperature: 30 C
Protocol: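 MPS profiling in S. cerevisiae of the yeast C-terminome library: the last 12 aa of each annotated ORF are fused to the C-terminus of a sfGFP-mCherry timer, after a GGGS linker. Cells are FACS-sorted into 8 mCherry/sfGFP bins and deep-sequenced. PSI runs from 0 (unstable) to 1 (stable); wild type and das1Δ backgrounds, two technical replicates each.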

[1] = genetic background: das1 deletion

Row | Sequence | protein stability index [1] | protein stability index (genetic background: wild type)
1 | TASEIQRTKSSI [YGR035C C-terminal 12 aa] | 0.711 ± 0.03 | 0.683 ± 0.022
2 | ITHLKAILPKYL [CCA1 C-terminal 12 aa] | 0.695 ± 0.0085 | 0.324 ± 0.0095
3 | LQAVAVAVSTKK [FAS2 C-terminal 12 aa] | 0.659 ± 0.01 | 0.65 ± 0.033
4 | PVRHQTGMHFCI [YHR032W-A C-terminal 12 aa] | 0.721 ± 0.009 | 0.682 ± 0.029
5 | FSTIDGSIKDIK [FDO1 C-terminal 12 aa] | 0.668 ± 0.023 | 0.6865 ± 0.0054
6 | KDRCGNVPHQSR [MRN1 C-terminal 12 aa] | 0.706 ± 0.0088 | 0.716 ± 0.08
7 | TLKKVTQNFYFD [LMO1 C-terminal 12 aa] | 0.7094 ± 0.0054 | 0.6724 ± 0.0018
8 | SNGFKEWRKSLK [RAI1 C-terminal 12 aa] | 0.6824 ± 0.0012 | 0.67 ± 0.02
9 | EPKYVDEDDWSD [CEG1 C-terminal 12 aa] | 0.69393 ± 0.00048 | 0.68 ± 0.02
10 | NGLKYHRGHSTH [SFP1 C-terminal 12 aa] | 0.703 ± 0.029 | 0.6745 ± 0.0032
11 | ENRTMFLSKGKS [YPR172W C-terminal 12 aa] | 0.701 ± 0.024 | 0.667 ± 0.016
12 | VDHLTDPDIYIP [BUB2 C-terminal 12 aa] | 0.7 ± 0.017 | 0.7129 ± 0.0042
13 | KELVKRRIVGEV [AEP3 C-terminal 12 aa] | 0.6815 ± 0.0042 | 0.72 ± 0.064
14 | IEHVKYDNIVSP [UBC12 C-terminal 12 aa] | 0.6974 ± 0.0012 | 0.675 ± 0.011
15 | VSGFKDEVLETV [RPS1B C-terminal 12 aa] | 0.679 ± 0.037 | 0.708 ± 0.029
16 | NRIVSLKDATSK [GLN4 C-terminal 12 aa] | 0.689 ± 0.021 | 0.685 ± 0.025
17 | HLCWLRCACDGP [YLR154C-G C-terminal 12 aa] | 0.716 ± 0.0083 | 0.699 ± 0.022
18 | TIYDGEAVAKYI [PRE5 C-terminal 12 aa] | 0.6775 ± 0.0025 | 0.7 ± 0.046
19 | VVNNRRQSRTPK [BLI1 C-terminal 12 aa] | 0.707 ± 0.044 | 0.661 ± 0.0082
20 | LKDEKRGDNVLA [THS1 C-terminal 12 aa] | 0.6983 ± 0.0068 | 0.67 ± 0.018
21 | ITGLKNNIQKCS [YER068C-A C-terminal 12 aa] | 0.688 ± 0.0055 | 0.253 ± 0.014

Row | Sequence | protein stability index [1] | protein stability index (genetic background: wild type)
22 | YVIHLDQIDRDL [YLR269C C-terminal 12 aa] | 0.714 ± 0.0093 | 0.699 ± 0.028
23 | RDRLVESCHFTQ [CIN4 C-terminal 12 aa] | 0.722 ± 0.023 | 0.706 ± 0.022
24 | DDEEATAMFKLE [IES1 C-terminal 12 aa] | 0.715 ± 0.0089 | 0.6754 ± 0.0028
25 | LMPSASLQDFYG [VID27 C-terminal 12 aa] | 0.73 ± 0.014 | 0.726 ± 0.014
26 | SPSPKPQHRRKR [ELO2 C-terminal 12 aa] | 0.734 ± 0.025 | 0.704 ± 0.029
27 | PQGAGRGRGMPM [CCT7 C-terminal 12 aa] | 0.69 ± 0.0089 | 0.678 ± 0.034
28 | YLISEKIIRKHL [MET14 C-terminal 12 aa] | 0.685 ± 0.017 | 0.602 ± 0.026
29 | TSNSPSPDLMEK [SMA2 C-terminal 12 aa] | 0.7018 ± 0.0012 | 0.705 ± 0.042
30 | RSRKNEGSYLMH [HMT1 C-terminal 12 aa] | 0.6967 ± 0.00082 | 0.693 ± 0.0082
31 | ILGNMEKKKNQD [EPS1 C-terminal 12 aa] | 0.733 ± 0.021 | 0.751 ± 0.013
32 | LKRTAIQFAAFS [SEC5 C-terminal 12 aa] | 0.6855 ± 0.0022 | 0.6844 ± 0.0012
33 | AMLKPSSKEGSP [COQ10 C-terminal 12 aa] | 0.6955 ± 0.0028 | 0.718 ± 0.0063
34 | DAHIYNKRSKPD [PHO80 C-terminal 12 aa] | 0.646 ± 0.012 | 0.662 ± 0.04
35 | QTVSTYTKVTPK [NCE103 C-terminal 12 aa] | 0.715 ± 0.016 | 0.702 ± 0.025
36 | SLRSFFVKQKVL [ERP6 C-terminal 12 aa] | 0.641 ± 0.0083 | 0.185 ± 0.025
37 | KELEFGLDRKYF [SLT2 C-terminal 12 aa] | 0.6989 ± 0.0057 | 0.68 ± 0.04
38 | VRLRGRKRSMLG [BUD32 C-terminal 12 aa] | 0.701 ± 0.02 | 0.665 ± 0.023
39 | ANESLEEDLNLD [YBR137W C-terminal 12 aa] | 0.698 ± 0.031 | 0.661 ± 0.025
40 | SWLYNFDELLWQ [ALG8 C-terminal 12 aa] | 0.761 ± 0.011 | 0.727 ± 0.021
41 | AWVPPTEDDSDE [DPH5 C-terminal 12 aa] | 0.698 ± 0.018 | 0.665 ± 0.0093
42 | VCKFASWLFSKI [AMD2 C-terminal 12 aa] | 0.72 ± 0.041 | 0.6687 ± 0.005

Row | Sequence | protein stability index [1] | protein stability index (genetic background: wild type)
43 | TLVGTPGYRITL [RCE1 C-terminal 12 aa] | 0.7168 ± 0.0018 | 0.695 ± 0.02
44 | SFMSYSCDMPTP [YCL022C C-terminal 12 aa] | 0.7225 ± 0.0042 | 0.727 ± 0.071
45 | RELWDEEKEIVL [KES1 C-terminal 12 aa] | 0.704 ± 0.033 | 0.73 ± 0.037
46 | KSVPILLPQVCM [YIL059C C-terminal 12 aa] | 0.5945 ± 0.0057 | 0.578 ± 0.0092
47 | TSDGSASDLEII [MCM10 C-terminal 12 aa] | 0.686 ± 0.0096 | 0.692 ± 0.024
48 | LEQGFKVVSAKE [YCS4 C-terminal 12 aa] | 0.697 ± 0.057 | 0.6812 ± 0.0067
49 | SDISDLDDLGFL [RPN3 C-terminal 12 aa] | 0.7213 ± 0.0065 | 0.679 ± 0.028
50 | KMDKRAKTSDSA [RPL8B C-terminal 12 aa] | 0.698 ± 0.0049 | 0.6802 ± 0.0027
51 | GKDITDQPCIDL [SSP2 C-terminal 12 aa] | 0.7054 ± 0.00083 | 0.725 ± 0.058
52 | ERRLSDLQQYHI [TMA10 C-terminal 12 aa] | 0.6982 ± 0.0017 | 0.683 ± 0.02
53 | YSYSSPKYTFPC [YKL147C C-terminal 12 aa] | 0.6967 ± 0.0022 | 0.669 ± 0.063
54 | LDFAKRKLKKKQ [TFB2 C-terminal 12 aa] | 0.714 ± 0.015 | 0.622 ± 0.034
55 | FLEIVVPCHCTT [YJL077W-A C-terminal 12 aa] | 0.539 ± 0.0037 | 0.56 ± 0.021
56 | SKKNVLYQKKNN [RTT107 C-terminal 12 aa] | 0.69 ± 0.0099 | 0.286 ± 0.014
57 | YSSDSSTLHSKV [FIG1 C-terminal 12 aa] | 0.7 ± 0.021 | 0.6859 ± 0.0017
58 | QTQLCKRKKKLT [VIK1 C-terminal 12 aa] | 0.687 ± 0.024 | 0.608 ± 0.051
59 | KGTFLANLTDLI [SWF1 C-terminal 12 aa] | 0.7347 ± 0.0012 | 0.665 ± 0.014
60 | GLLMAGKASEFQ [VMA16 C-terminal 12 aa] | 0.694 ± 0.013 | 0.72 ± 0.035
61 | IWKPAGNLVGHS [MSI1 C-terminal 12 aa] | 0.698 ± 0.013 | 0.7019 ± 0.0026
62 | DGFSVPITTFQT [CDC15 C-terminal 12 aa] | 0.712 ± 0.011 | 0.709 ± 0.045
63 | KRIDSYIDEMTT [MCO14 C-terminal 12 aa] | 0.723 ± 0.011 | 0.664 ± 0.054

Row | Sequence | protein stability index [1] | protein stability index (genetic background: wild type)
64 | QELCADSTIYHM [LIP1 C-terminal 12 aa] | 0.687 ± 0.017 | 0.734 ± 0.065
65 | HEKPHTVSLRHK [CPR4 C-terminal 12 aa] | 0.717 ± 0.013 | 0.721 ± 0.035
66 | SRFLKRKSHHDK [SEC1 C-terminal 12 aa] | 0.687 ± 0.0091 | 0.723 ± 0.049
67 | GDSDNVVKRLRK [URB1 C-terminal 12 aa] | 0.686 ± 0.018 | 0.707 ± 0.016
68 | EGIFPANYVELV [LSB3 C-terminal 12 aa] | 0.7016 ± 0.0045 | 0.678 ± 0.037
69 | DAFEKAIEAVYA [ARG8 C-terminal 12 aa] | 0.546 ± 0.014 | 0.558 ± 0.012
70 | KKKNRSKIKFNY [PTH4 C-terminal 12 aa] | 0.724 ± 0.021 | 0.589 ± 0.011
71 | TKAIEDAKKEMK [NUP2 C-terminal 12 aa] | 0.714 ± 0.013 | 0.737 ± 0.11
72 | PTTRPYIYEPRK [ELA1 C-terminal 12 aa] | 0.696 ± 0.011 | 0.662 ± 0.017
73 | DLEEAANKAQPQ [YLR257W C-terminal 12 aa] | 0.6993 ± 0.0011 | 0.7125 ± 0.0015
74 | SETFATPTPNNR [SPC42 C-terminal 12 aa] | 0.718 ± 0.022 | 0.725 ± 0.01
75 | SDMYDSKRLLYV [YPL035C C-terminal 12 aa] | 0.652 ± 0.033 | 0.537 ± 0.034
76 | SGSGVHVIKRVG [ESS1 C-terminal 12 aa] | 0.701 ± 0.0075 | 0.65 ± 0.019
77 | WLPELALLCALD [LAS21 C-terminal 12 aa] | 0.614 ± 0.0098 | 0.633 ± 0.017
78 | KNVTINTRETPL [DAL81 C-terminal 12 aa] | 0.694 ± 0.018 | 0.6712 ± 0.0061
79 | RSKLFNLSINNP [SPC72 C-terminal 12 aa] | 0.6997 ± 0.001 | 0.6855 ± 0.0063
80 | RERAKKLVTWLI [SSY1 C-terminal 12 aa] | 0.6701 ± 0.0019 | 0.475 ± 0.026
81 | RYNDERLGPVQG [IRC24 C-terminal 12 aa] | 0.696 ± 0.021 | 0.684 ± 0.043
82 | ELTFDVKLVSMK [FPR4 C-terminal 12 aa] | 0.686 ± 0.0071 | 0.687 ± 0.034
